Laboratory results from publication PMC4089488 (Acta Crystallographica Section D: Biological Crystallography, 2014).
Each block holds one binder with its values, some of them ahead of it.

B1: human MST1 SARAH domain (residues 432–480) (domain or fragment, UniProt Q13043 432-480, looked up)
chain: DYEFLKSWTVEDLQKRLLALDPMMEQEIEEIRQKYQSKRQPILDAIEAK
notes: mammalian sterile 20-like kinase 1 (MST1, KRS-2), human, 487 residues, SARAH domain residues 432-480; A selenomethionine-labelled form (E. coli B834 (DE3)) was used for SAD phasing; also called KRS-2; hMST1; source: E. coli BL21, GST fusion protein, purified as described previously (Hwang et al., 2007)
B4: human RASSF5 SARAH domain (residues 366–418) (domain or fragment, UniProt Q8WWW0 366-418, looked up)
chain: EVEWDAFSIPELQNFLTILEKEEQDKIQQVQKKYDKFRQKLEEALRESQGKPG

Tests used:
[1] = biological target: the molecule itself; assay: cell-based or functional assay
[2] = biological target: B4; assay: crystal structure; MST1–RASSF5 SARAH heterodimer (domains mixed 1:2, heterodimer separated on Superdex 75 in 25 mM HEPES pH 7.0, 100 mM NaCl, 2 mM DTT); hanging drop, 20°C, 35% MPD, acetate pH 4.8; space group C222(1), one heterodimer in the asymmetric unit; SAD phasing with SeMet MST1; conditions: both partners purified
[3] = biological target: the molecule itself; assay: crystal structure; MST2 SARAH homodimer, 40 mg/ml; hanging drop, 20°C, 2.0 M NaCl, 8% PEG 6000; space group P4(1)2(1)2, one homodimer in the asymmetric unit; molecular replacement
[4] = biological target: B4; assay: NMR titration; MST2 SARAH homodimer titrated with the RASSF5 SARAH domain in solution (Supplementary Fig. S7); conditions: both partners purified
[5] = biological target: T1, human MST1 SARAH domain (residues 432–480) (human) (UniProt Q13043)
T1 sequence: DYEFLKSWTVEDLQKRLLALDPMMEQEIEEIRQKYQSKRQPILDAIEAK

[6] = biological target: B1; assay: cell-based or functional assay

Binder: B1
- free energy of unfolding of the homodimer, urea-induced denaturation followed by CD, two-state fit [1]: 2 kcal/mol
- binding result [2]: binds

- binding result [4]: binds
B2: human MST2 SARAH domain (residues 436–484) (domain or fragment, UniProt Q13188 436-484, looked up)
chain: DFDFLKNLSLEELQMRLKALDPMMEREIEELRQRYTAKRQPILDAMDAK
notes: mammalian sterile 20-like kinase 2 (MST2, KRS-1), human, 491 residues, SARAH domain residues 436-484; Forms a homodimer (one homodimer in the asymmetric unit); also called KRS-1; hMST2; source: E. coli BL21, GST fusion protein, purified as described previously (Hwang et al., 2010)
- binding result [3]: binds

- transition concentration (C m) of urea, urea-induced denaturation of the double-mutant SARAH heterodimer followed by CD at 222 nm [5]: 3.2 M
B3: RASSF5 SARAH domain double mutant (E388A and K398A) (domain or fragment)
chain: EVEWDAFSIPELQNFLTILEKEAQDKIQQVQKAYDKFRQKLEEALRESQGKPG

Binder: B4
- free energy of unfolding of the heterodimer, urea-induced denaturation followed by CD, two-state fit [6]: 4.8 kcal/mol
